According to US20220389097A1 (Genentech, published 2022):

T1: human TREM2-Fc (human, UniProt Q9NZC2 19-174)
T1 construct: also called hTREM2; not shown: Fc part (captured by anti-human IgG1 Fc or protein A)
T1 sequence: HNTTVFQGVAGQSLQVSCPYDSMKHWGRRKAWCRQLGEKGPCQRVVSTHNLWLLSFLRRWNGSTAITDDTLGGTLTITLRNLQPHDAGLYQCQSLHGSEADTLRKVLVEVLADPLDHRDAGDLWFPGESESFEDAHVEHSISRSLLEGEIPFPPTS

T2: cynomolgus TREM2-Fc (cynomolgus monkey, UniProt A0A2K5UY34 49-204)
T2 construct: also called cyno TREM2; not shown: Fc part
T2 sequence: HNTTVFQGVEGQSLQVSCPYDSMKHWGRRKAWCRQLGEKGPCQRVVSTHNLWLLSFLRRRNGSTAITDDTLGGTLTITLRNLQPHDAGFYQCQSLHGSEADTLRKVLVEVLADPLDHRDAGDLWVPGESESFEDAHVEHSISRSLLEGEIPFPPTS

T3: soluble monomeric human TREM2 (human, UniProt Q9NZC2 19-174, limits assumed)
T3 construct: Not the same as shed sTREM2; also called soluble monomeric TREM2
T3 sequence: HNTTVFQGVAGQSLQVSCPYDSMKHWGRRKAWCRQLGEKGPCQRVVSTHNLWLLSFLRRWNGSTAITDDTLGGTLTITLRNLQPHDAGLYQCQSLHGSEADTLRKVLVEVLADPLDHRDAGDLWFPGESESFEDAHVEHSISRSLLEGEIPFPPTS

T4: human TREM2 on cells (human, UniProt Q9NZC2 19-230)
T4 sequence: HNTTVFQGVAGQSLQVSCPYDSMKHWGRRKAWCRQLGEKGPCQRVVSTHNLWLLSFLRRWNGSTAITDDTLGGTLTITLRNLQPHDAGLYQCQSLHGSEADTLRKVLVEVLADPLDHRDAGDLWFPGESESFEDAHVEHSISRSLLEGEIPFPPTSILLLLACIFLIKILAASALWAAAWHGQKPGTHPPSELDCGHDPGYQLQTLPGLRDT


Columns and labels:
human TREM2-Fc [1] = biological target: T1, human TREM2-Fc; test: SPR (Biacore T200), 37 C; TREM2-Fc on protein A chip, soluble Fab
Experimental: (§1) Affinity of h3.10C2.v1 (FIGS. 9A-B) for human and cynomolgus TREM2 was determined by SPR in a Biacore™ T200 apparatus in two formats, both at 37° C. In one format TREM2-Fc was immobilized on protein A chips and soluble anti-TREM2 Fab fragments used as ligands. In the second format, anti-TREM2 IgG was immobilized on anti-CH1 Biacore™ chips and used soluble monomeric TREM2 as ligand.

cynomolgus TREM2-Fc [2] = biological target: T2, cynomolgus TREM2-Fc; test: as above
Experimental: as §1

human TREM2-Fc [3] = biological target: T1, human TREM2-Fc; test: SPR (Biacore T200), 37 C; TREM2-Fc on anti-human IgG1 Fc chip, Fab in solution
Experimental: (§2) Briefly, clone variants were expressed as Fab fragments and purified by anti-CH1 affinity chromatography followed by size exclusion chromatography. TREM2-Fc antigens were immobilized on anti-human IgG1 Fc Biacore™ chips and soluble Para.09 variant and 3.10C2 clone Fab fragments were bound to immobilized TREM2 at 37° C.

cynomolgus TREM2-Fc [4] = biological target: T2, cynomolgus TREM2-Fc; test: as above
Experimental: as §2

human TREM2-Fc [5] = biological target: T1, human TREM2-Fc; test: SPR (Biacore T200), 37 C; TREM2-Fc on protein A chip, Fab in solution
Experimental: The humanized heavy chain variants were tested for affinity by combining the heavy chain variants with the 3.10C2-L1 light chain. These variants were expressed as Fab fragments, purified by protein A chromatography, and tested for affinity for TREM2-Fc coated on a protein A chip with a Biacore™ T200 apparatus.

[6] = biological target: T3, soluble monomeric human TREM2; test: SPR (Biacore T200), 37 C; IgG on anti-CH1 chip, soluble monomeric TREM2
human TREM2 on cells [7] = biological target: T4, human TREM2 on cells; test: cell-based or functional assay
human TREM2 on cells [8] = biological target: T4, human TREM2 on cells; test: cell-based or functional assay; remark: listed apart in the source

Binder	Kd (human TREM2-Fc [1]) [nM]	koff (human TREM2-Fc [1]) [s⁻¹]	kon (human TREM2-Fc [1]) [M⁻¹ s⁻¹]	Kd (cynomolgus TREM2-Fc [2]) [nM]	koff (cynomolgus TREM2-Fc [2]) [s⁻¹]	kon (cynomolgus TREM2-Fc [2]) [M⁻¹ s⁻¹]	Kd (human TREM2-Fc [3]) [pM]	koff (human TREM2-Fc [3]) [s⁻¹]	kon (human TREM2-Fc [3]) [M⁻¹ s⁻¹]	Kd (cynomolgus TREM2-Fc [4]) [pM]	koff (cynomolgus TREM2-Fc [4]) [s⁻¹]	kon (cynomolgus TREM2-Fc [4]) [M⁻¹ s⁻¹]	other results
Para.09 Fab with the 3.27H7 light chain (Fab, V domains shown, Fab fragment; also called Para.09 (3.27H7); Para.09-L27H7) VH: EVQLVETGGSLVQPGKSLRLTCATSGFPFSNVWLHWVRQSPEKHPEWVAHIKAKSDNYATYYAESVKGRFTISRDDSKSSVFLQMNSLKEEDTAIYYCTDILEYWGQGTLVTVSS VL: DVVLTQAPLSVSVTPGESASISCRSSRSLLTSKGITSLYWYLQKPGMSPHLLIYRMSNLASGIPDRFSGSGSETDFTLKISEVEPEDVGVYYCAQFLVYPYTFGAGTKLELK	0.015	3.5e-05	2.3e+06	0.018	4.1e-05	2.3e+06	4.2	2.7e-05	6.3e+06	2.5	1.2e-05	4.8e+06	
Para.09 Fab with the 3.18E5 light chain (Fab, V domains shown, also called Para.09 (3.18E5)) VH: EVQLVETGGSLVQPGKSLRLTCATSGFPFSNVWLHWVRQSPEKHPEWVAHIKAKSDNYATYYAESVKGRFTISRDDSKSSVFLQMNSLKEEDTAIYYCTDILEYWGQGTLVTVSS VL: DTVLTQAPLSVSVTPGESASISCRSNKSLLGIRDITSLYWYLQKPGKSPQLLIYRMSNLASGVPDRFSGSGSETDFTLKISEVETEDVGVYYCAQFLRYPYTFGPGTKLELK							5	2.8e-05	5.6e+06	2.4	8.9e-06	3.8e+06	
Para.09 Fab with the 3.10C2 light chain (Fab, V domains shown, also called Para.09 (3.10C2)) VH: EVQLVETGGSLVQPGKSLRLTCATSGFPFSNVWLHWVRQSPEKHPEWVAHIKAKSDNYATYYAESVKGRFTISRDDSKSSVFLQMNSLKEEDTAIYYCTDILEYWGQGTLVTVSS VL: DTVLTQAPLSLSVTPGESASISCRSSKSLLGVRDITSLYWYLQKPGKSPQLLIYRMSNLASGVPDRFSGSGSETDFTLKISEVETEDVGVYYCAQFLRYPYTFGPGTKLELK							3.8	2.7e-05	7.1e+06	1.6	7.8e-06	4.8e+06	
3.10C2-H6/3.10C2-L1 Fab (Fab, V domains shown) VH: EVQLVESGGGLVQPGGSLKLSCATSGFPFSNVWMHWVRQASGKGLEWVAHIKAKSDNYATYYAESVKGRFTISRDDSKNTIYLQMNSLKTEDTAVYYCTGLDYWGQGTTVTVSS VL: DTVLTQSPLSLPVTPGEPASISCRSSKSLLGVRDITSLYWYLQKPGQSPQLLIYRMSNLASGVPDRFSGSGSETDFTLKISRVEAEDVGVYYCAQFLRYPYTFGQGTKVEIK													koff (human TREM2-Fc [5]): 0.0013 s⁻¹; kon (human TREM2-Fc [5]): 210000 M⁻¹ s⁻¹
3.10C2 IgG (rat variable regions; captured by anti-CH1 or anti-human Fab chips) (antibody, V domains shown, also called parental 3.10C2 clone; 3.10C2 control) VH: EVQLVETGGSLVQPGKSLKLTCATSGFPFSNVWMHWVRQSPEKQLEWIAHIKAKSDNYATYYAESVKGRFTISRDDSKTSIYLQMNSLKEDDTAIYYCTGLDYWGQGVMVTVSS VL: DTVLTQAPLSLSVTPGESASISCRSSKSLLGVRDITSLYWYLQKPGKSPQLLIYRMSNLASGVPDRFSGSGSETDFTLKISEVETEDVGVYYCAQFLRYPYTFGPGTKLELK													Kd [6]: 0.12 nM; koff [6]: 9.6e-05 s⁻¹; kon [6]: 780000 M⁻¹ s⁻¹
hPara.09.v2 Q100P/V104L (antibody, human IgG1, V domains shown) VH: EVQLVESGGGLVQPGGSLKLSCATSGFPFSNVWLHWVRQASGKGPEWVAHIKAKSDNYATYYAESVKGRFTISRDDSKNTVYLQMNSLKTEDTAVYYCTDILEYWGQGTLVTVSS VL: DVVMTQSPLSLPVTPGEPASISCRSSRSLLTSKGITSLYWYLQKPGQSPQLLIYRMSNLASGIPDRFSGSGSGTDFTLKISRVEAEDVGVYYCAQFLVYPYTFGPGTKLEIK													EC50, average X04 plaque intensity, human iPSC-derived microglia plaque assay (FIG. 24C) (human TREM2 on cells [7]): 40 nM; EC50, survival of iPSC-derived microglia (FIG. 23E) (human TREM2 on cells [7]): 190 pM; EC50, total Abeta plaque intensity, human iPSC-derived microglia plaque assay (FIG. 24B) (human TREM2 on cells [7]): 770 nM; phospho-SYK/total SYK relative to anti-gD control, iPSC-derived microglia, 1 hour (human TREM2 on cells [7]): 2 fold; phospho-SYK/total SYK relative to anti-gD control, iPSC-derived microglia, 4 hours (human TREM2 on cells [7]): > 10 fold; EC50, Jurkat NFAT luciferase reporter cells (human TREM2 on cells [8]): 23.2 ng/mL; IC50, TREM2 shedding inhibition in Jurkat-NFAT reporter cells (sTREM2 ELISA) (human TREM2 on cells [8]): 114 ng/mL
h3.10C2.v1 hIgG1 N297G (antibody, V domains shown, Human IgG1 N297G; also called h3.10C2.v1.huIgG1.N297G) VH: EVQLVESGGGLVQPGGSLKLSCATSGFPFSNVWMHWVRQASGKGLEWIAHIKAKSDNYATYYAESVKGRFTISRDDSKTTIYLQMNSLKTEDTAVYYCTGLDYWGQGTTVTVSS VL: DVVMTQSPLSLPVTPGEPASISCRSSRSLLTSKGITSLYWYLQKPGQSPQLLIYRMSNLASGVPDRFSGSGSGTDFTLKISRVEAEDVGVYYCAQFLVYPYTFGQGTKVEIK													EC50, average X04 plaque intensity, human iPSC-derived microglia plaque assay (FIG. 24C) (human TREM2 on cells [7]): 11 nM; EC50, survival of iPSC-derived microglia (FIG. 23E) (human TREM2 on cells [7]): 350 pM; EC50, total Abeta plaque intensity, human iPSC-derived microglia plaque assay (FIG. 24B) (human TREM2 on cells [7]): 130 nM; EC50, Jurkat NFAT luciferase reporter cells (human TREM2 on cells [8]): 76 ng/mL; IC50, TREM2 shedding inhibition in Jurkat-NFAT reporter cells (sTREM2 ELISA) (human TREM2 on cells [8]): 975 ng/mL; Kd [6]: 0.42 nM; koff [6]: 0.00035 s⁻¹; kon [6]: 840000 M⁻¹ s⁻¹

More lines, main results first:

Kd (human TREM2-Fc [1]) [nM]	koff (human TREM2-Fc [1]) [s⁻¹]	kon (human TREM2-Fc [1]) [M⁻¹ s⁻¹]	Kd (cynomolgus TREM2-Fc [2]) [nM]	koff (cynomolgus TREM2-Fc [2]) [s⁻¹]	kon (cynomolgus TREM2-Fc [2]) [M⁻¹ s⁻¹]	Kd (human TREM2-Fc [3]) [pM]	koff (human TREM2-Fc [3]) [s⁻¹]	kon (human TREM2-Fc [3]) [M⁻¹ s⁻¹]	Kd (cynomolgus TREM2-Fc [4]) [pM]	koff (cynomolgus TREM2-Fc [4]) [s⁻¹]	kon (cynomolgus TREM2-Fc [4]) [M⁻¹ s⁻¹]	Binder	other results
						1.1	5.8e-06	5.1e+06	2	7.9e-06	3.9e+06	Para.09 Fab with the 3.50G1 light chain (Fab, V domains shown, also called Para.09 (3.50G1)) VH: EVQLVETGGSLVQPGKSLRLTCATSGFPFSNVWLHWVRQSPEKHPEWVAHIKAKSDNYATYYAESVKGRFTISRDDSKSSVFLQMNSLKEEDTAIYYCTDILEYWGQGTLVTVSS VL: DTVLTQAPLSVSVTPGESASISCRSNKSLLGIRDITSLYWFLQKPGKSPQLLIYRMSNLASGVPDRFSGSGSETDFTLKISEVETEDVGVYYCAQFLRYPYTFGPGTKLELQ	
0.39	0.00057	1.5e+06	0.43	0.00062	1.4e+06							h3.10C2.v1 Fab (Fab, V domains shown, also called 3.10C2-H1/3.27H7-L6) VH: EVQLVESGGGLVQPGGSLKLSCATSGFPFSNVWMHWVRQASGKGLEWIAHIKAKSDNYATYYAESVKGRFTISRDDSKTTIYLQMNSLKTEDTAVYYCTGLDYWGQGTTVTVSS VL: DVVMTQSPLSLPVTPGEPASISCRSSRSLLTSKGITSLYWYLQKPGQSPQLLIYRMSNLASGVPDRFSGSGSGTDFTLKISRVEAEDVGVYYCAQFLVYPYTFGQGTKVEIK	
0.021	6.1e-05	3e+06	0.022	6.3e-05	2.9e+06							hPara.09.v2 Fab (Fab, V domains shown, also called Para.09-H5/3.27H7-L6) VH: EVQLVESGGGLVQPGGSLKLSCATSGFPFSNVWLHWVRQASGKGPEWVAHIKAKSDNYATYYAESVKGRFTISRDDSKNTVYLQMNSLKTEDTAVYYCTDILEYWGQGTLVTVSS VL: DVVMTQSPLSLPVTPGEPASISCRSSRSLLTSKGITSLYWYLQKPGQSPQLLIYRMSNLASGIPDRFSGSGSGTDFTLKISRVEAEDVGVYYCAQFLVYPYTFGQGTKVEIK	
